What was measured:
[1] = target: Murine FcγRIIB extracellular domain (mouse) (UniProt P08101); assay: SPR, dissociation constant from binding at equilibrium on immobilized murine FcγRIIB extracellular domain, 37 °C
[2] = target: Murine FcγRIIB extracellular domain (mouse) (UniProt P08101); assay: SPR, binding at equilibrium, antibody injected at 37 °C over murine FcγRIIB extracellular domain amine-coupled to a CM5 chip, reference channel mouse CD200

Sequence of UniProt P08101 (P08101 30-210): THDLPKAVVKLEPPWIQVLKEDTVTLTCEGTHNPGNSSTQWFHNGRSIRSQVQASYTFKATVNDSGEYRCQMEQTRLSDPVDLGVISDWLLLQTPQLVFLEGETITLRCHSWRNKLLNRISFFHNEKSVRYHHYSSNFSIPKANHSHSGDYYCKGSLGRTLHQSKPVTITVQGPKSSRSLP

| Kd [1] [µM] | Kd [2] [µM] | Substance |
| --- | --- | --- |
| 8.51 | 8.51 | chimeric Nivolumab in an extended form containing the 50-residue extension (antibody) |
| 1.07 | 1.07 | JJ316+50 (JJ316 extended in the hinge with a 50 amino acid insertion from murine CD43) (antibody) |
| 3.02 | 3.02 | JJ316 (anti-rat CD28 antibody, superagonistic; BD Biosciences cat #554992) |

Source: patent publication US20220064300A1
